Measured values: article PMC11959585, “Modular Nanoparticle Platform for Solution-Phase Optical Sensing of Protein–Protein Interactions” (ACS Applied Optical Materials, 2025)

Assays:
Conditions in all cases: both partners purified
[1] = biological target: T1, His-tagged PEX5 (110–230) (UniProt P50542 110-230); test: solution-phase LSPR peak shift of nanoparticles (UV–vis); kinetic: peak position scanned every 20–30 s for 25 min after manual addition of PEX14 to immobilised hPEX5 (PEX14:PEX5 10:1 for 1–113), exponential fit; ka and kd derived from kobs and KD; 20 mM sodium phosphate, 100 mM NaCl, 0.025 wt % Tween 20, pH 7.9
T1 construct: cytosolic peroxisomal targeting protein PEX5, stretch of the intrinsically disordered N-terminal domain, residues 110-230; His-tagged samples were made with the pETM10 vector; also called hPEX5 (110–230); source: E. coli BL21 (DE3), purified (Ni-NTA, SEC); not shown: His6, N-terminal, kept

His-tagged PEX5 (1–113) [2] = biological target: T2, His-tagged PEX5 (1–113) (UniProt P50542 1-113); test: solution-phase LSPR peak shift of nanoparticles (UV–vis); binding curve near equilibrium: PEX14 (16–80) titrated onto hPEX5 construct (0.015 μM) immobilised on nanobiosensors (~0.025 nM); 20 mM sodium phosphate, 100 mM NaCl, 0.025 wt % Tween 20, pH 7.9; fit with the Hill–Waud equation
T2 construct: cytosolic peroxisomal targeting protein PEX5, stretch of the intrinsically disordered N-terminal domain, residues 1-113; His-tagged samples were made with the pETM10 vector; also called hPEX5 (1–113); source: E. coli BL21 (DE3), purified (Ni-NTA, SEC); not shown: His6, N-terminal, kept

His-tagged PEX5 (1–113) [3] = biological target: T2, His-tagged PEX5 (1–113); test: solution-phase LSPR peak shift of nanoparticles (UV–vis); kinetic: peak position scanned every 20–30 s for 25 min after manual addition of PEX14 to immobilised hPEX5 (PEX14:PEX5 10:1 for 1–113), exponential fit; ka and kd derived from kobs and KD; 20 mM sodium phosphate, 100 mM NaCl, 0.025 wt % Tween 20, pH 7.9

B1: PEX14 (16–80) (domain or fragment, UniProt O75381 16-80, looked up)
chain: TPGSENVLPREPLIATAVKFLQNSRVRQSPLATRRAFLKKKGLTDEEIDMAFQQSGTAADEPSSL
notes: peroxisomal membrane-associated import protein PEX14, globular N-terminal domain, residues 16-80; also called globular N-terminal domain of PEX14; source: E. coli BL21 (DE3), purified (Ni-NTA, TEV cleavage, reverse Ni column, SEC); not shown: His6, N-terminal, cleaved
In the case of B1, the “ka near the first inflection point” value [1] is reported as 12400 M^–1 s^–1, the “kd near the first inflection point” value [1] is reported as 0.00212 s^–1 and the Kd (His-tagged PEX5 (1–113) [2]) is reported as 289 nM. The koff (His-tagged PEX5 (1–113) [3]) was 0.00262 s⁻¹ and the kon (His-tagged PEX5 (1–113) [3]) was 9060 M⁻¹ s⁻¹.
